Among the data in article PMC9313502 (Advanced Science, 2022) are EC50 values, retold here.

The target in this test is Biotinylated recombinant human TNF‐α (human, UniProt P01375 77-233, biotin on primary amines (lysine conjugation, NHS-PEG4-biotin)). Briefly: ELISA; sparsely biotinylated hTNF-α (7.5 nM) held on avidin-coated 96-well plates; hTNFR1-ECD-HRP in solution, read at 450 nm with TMB; apparent EC50. The settings on record: both partners purified.
Sequence of Biotinylated recombinant human TNF‐α (P01375 77-233): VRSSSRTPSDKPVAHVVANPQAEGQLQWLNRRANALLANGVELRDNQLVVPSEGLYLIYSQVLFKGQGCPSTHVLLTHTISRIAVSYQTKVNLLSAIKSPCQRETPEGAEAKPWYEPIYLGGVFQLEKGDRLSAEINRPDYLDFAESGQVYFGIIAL

B1: HRP‐tagged human TNF‐α receptor 1 extracellular domain (receptor)
chain: RDSVCPQGKYIHPQNNSICCTKCHKGTYLYNDCPGPGQDTDCRECESGSFTASENHLRHCLSCSKCRKEMGQVEISSCTVDRDTVCGCRKNQYRHYWSENLFQCFNCSLCLNGTVHLSCQEKQNTVCTCHAGFFLRENECVSCSNCKKSLECTKLCLPQIEN
modifications: conjugated to horse‐radish peroxidase (HRP Conjugation Kit, Proteintech PK20001)
In the case of B1, the EC50 came to 4.6 nM.

The term EC50 denotes the concentration at which the effect is half-maximal.
